Measured values reported in the supplement of paper PMC10567573.

B1: TBX5 (parent)
chain: YQNHKITQLKIENNPFAKGFRGSD

Variants of: B1
Experiment: protein stability index of a GFP-peptide fusion (GPS, HEK-293T) (PSI 1-6); higher = more stable
Conditions: c terminus: a fixed tail appended
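Further: lentivirally expressed fusions sorted by FACS into six bins by GFP to DsRed ratio, PSI derived from sequencing read proportions per bin multiplied by bin number.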

First: SQNHKITQLKIENNPFAKGFRGSD [Y1S]
Second: TQNHKITQLKIENNPFAKGFRGSD [Y1T]
The protein stability index of the first is lower: 2.82 for the first, 3.65 for the second.

Compared with VQNHKITQLKIENNPFAKGFRGSD [Y1V], WQNHKITQLKIENNPFAKGFRGSD [Y1W] is lower in protein stability index: 3.22 for the first, 2.92 for the second.

First: YANHKITQLKIENNPFAKGFRGSD [Q2A]
Second: YCNHKITQLKIENNPFAKGFRGSD [Q2C]
The protein stability index of the first is lower: 1.84 for the first, 2.54 for the second.

First: YDNHKITQLKIENNPFAKGFRGSD [Q2D]
Second: YENHKITQLKIENNPFAKGFRGSD [Q2E]
The protein stability index of the first is higher: 4.02 for the first, 3.14 for the second.

First: YFNHKITQLKIENNPFAKGFRGSD [Q2F]
Second: YGNHKITQLKIENNPFAKGFRGSD [Q2G]
The protein stability index of the first is higher: 2.75 for the first, 2.54 for the second.

Compared with YHNHKITQLKIENNPFAKGFRGSD [Q2H], YINHKITQLKIENNPFAKGFRGSD [Q2I] is higher in protein stability index: 1.46 for the first, 2.19 for the second.

Compared with YKNHKITQLKIENNPFAKGFRGSD [Q2K], YLNHKITQLKIENNPFAKGFRGSD [Q2L] is lower in protein stability index: 2.85 for the first, 2.84 for the second.

Going from YMNHKITQLKIENNPFAKGFRGSD [Q2M] to YNNHKITQLKIENNPFAKGFRGSD [Q2N], the protein stability index rises from 2.61 to 3.48.

First: YPNHKITQLKIENNPFAKGFRGSD [Q2P]
Second: YRNHKITQLKIENNPFAKGFRGSD [Q2R]
The protein stability index of the first is higher: 2.63 for the first, 2.61 for the second.

Going from YSNHKITQLKIENNPFAKGFRGSD [Q2S] to YTNHKITQLKIENNPFAKGFRGSD [Q2T], the protein stability index falls from 3.26 to 2.4.

First: YVNHKITQLKIENNPFAKGFRGSD [Q2V]
Second: YWNHKITQLKIENNPFAKGFRGSD [Q2W]
The protein stability index of the first is higher: 2.39 for the first, 2.04 for the second.

Going from YYNHKITQLKIENNPFAKGFRGSD [Q2Y] to YQAHKITQLKIENNPFAKGFRGSD [N3A], the protein stability index falls from 2.92 to 1.94.

First: YQCHKITQLKIENNPFAKGFRGSD [N3C]
Second: YQDHKITQLKIENNPFAKGFRGSD [N3D]
The protein stability index of the first is lower: 1.75 for the first, 2.71 for the second.

First: YQEHKITQLKIENNPFAKGFRGSD [N3E]
Second: YQFHKITQLKIENNPFAKGFRGSD [N3F]
The protein stability index of the first is higher: 3.33 for the first, 2.23 for the second.

Compared with YQGHKITQLKIENNPFAKGFRGSD [N3G], YQHHKITQLKIENNPFAKGFRGSD [N3H] is higher in protein stability index: 2.26 for the first, 2.29 for the second.

First: YQIHKITQLKIENNPFAKGFRGSD [N3I]
Second: YQKHKITQLKIENNPFAKGFRGSD [N3K]
The protein stability index of the first is lower: 1.97 for the first, 2.64 for the second.

Compared with YQLHKITQLKIENNPFAKGFRGSD [N3L], YQMHKITQLKIENNPFAKGFRGSD [N3M] is higher in protein stability index: 2.07 for the first, 2.16 for the second.

Compared with YQPHKITQLKIENNPFAKGFRGSD [N3P], YQQHKITQLKIENNPFAKGFRGSD [N3Q] is higher in protein stability index: 2.57 for the first, 2.93 for the second.

Going from YQRHKITQLKIENNPFAKGFRGSD [N3R] to YQSHKITQLKIENNPFAKGFRGSD [N3S], the protein stability index falls from 2.44 to 2.3.

Compared with YQTHKITQLKIENNPFAKGFRGSD [N3T], YQVHKITQLKIENNPFAKGFRGSD [N3V] is lower in protein stability index: 2.42 for the first, 2.39 for the second.

Going from YQWHKITQLKIENNPFAKGFRGSD [N3W] to YQYHKITQLKIENNPFAKGFRGSD [N3Y], the protein stability index rises from 1.89 to 1.99.

First: YQNAKITQLKIENNPFAKGFRGSD [H4A]
Second: YQNCKITQLKIENNPFAKGFRGSD [H4C]
The protein stability index of the first is higher: 2.52 for the first, 1.67 for the second.

Going from YQNDKITQLKIENNPFAKGFRGSD [H4D] to YQNEKITQLKIENNPFAKGFRGSD [H4E], the protein stability index falls from 3.52 to 3.19.

Compared with YQNFKITQLKIENNPFAKGFRGSD [H4F], YQNGKITQLKIENNPFAKGFRGSD [H4G] is higher in protein stability index: 1.89 for the first, 2.57 for the second.

Going from YQNIKITQLKIENNPFAKGFRGSD [H4I] to YQNKKITQLKIENNPFAKGFRGSD [H4K], the protein stability index rises from 2.11 to 2.4.

Compared with YQNLKITQLKIENNPFAKGFRGSD [H4L], YQNMKITQLKIENNPFAKGFRGSD [H4M] is lower in protein stability index: 3.06 for the first, 2.49 for the second.

Compared with YQNNKITQLKIENNPFAKGFRGSD [H4N], YQNPKITQLKIENNPFAKGFRGSD [H4P] is lower in protein stability index: 2.87 for the first, 2.58 for the second.

Compared with YQNQKITQLKIENNPFAKGFRGSD [H4Q], YQNRKITQLKIENNPFAKGFRGSD [H4R] is higher in protein stability index: 2.66 for the first, 2.77 for the second.

First: YQNSKITQLKIENNPFAKGFRGSD [H4S]
Second: YQNTKITQLKIENNPFAKGFRGSD [H4T]
The protein stability index of the first is higher: 2.62 for the first, 2.44 for the second.

Compared with YQNVKITQLKIENNPFAKGFRGSD [H4V], YQNWKITQLKIENNPFAKGFRGSD [H4W] is higher in protein stability index: 2.68 for the first, 2.89 for the second.

Compared with YQNYKITQLKIENNPFAKGFRGSD [H4Y], YQNHAITQLKIENNPFAKGFRGSD [K5A] is higher in protein stability index: 2.15 for the first, 2.7 for the second.

Compared with YQNHCITQLKIENNPFAKGFRGSD [K5C], YQNHDITQLKIENNPFAKGFRGSD [K5D] is higher in protein stability index: 2.15 for the first, 3.06 for the second.

Compared with YQNHEITQLKIENNPFAKGFRGSD [K5E], YQNHFITQLKIENNPFAKGFRGSD [K5F] is lower in protein stability index: 2.98 for the first, 1.84 for the second.

Compared with YQNHGITQLKIENNPFAKGFRGSD [K5G], YQNHHITQLKIENNPFAKGFRGSD [K5H] is lower in protein stability index: 2.57 for the first, 2.03 for the second.

First: YQNHIITQLKIENNPFAKGFRGSD [K5I]
Second: YQNHLITQLKIENNPFAKGFRGSD [K5L]
The protein stability index of the first is lower: 1.51 for the first, 2.18 for the second.

Compared with YQNHMITQLKIENNPFAKGFRGSD [K5M], YQNHNITQLKIENNPFAKGFRGSD [K5N] is higher in protein stability index: 2 for the first, 2.59 for the second.

Going from YQNHPITQLKIENNPFAKGFRGSD [K5P] to YQNHQITQLKIENNPFAKGFRGSD [K5Q], the protein stability index rises from 2.77 to 2.81.

Going from YQNHRITQLKIENNPFAKGFRGSD [K5R] to YQNHSITQLKIENNPFAKGFRGSD [K5S], the protein stability index falls from 2.38 to 2.21.

YQNHTITQLKIENNPFAKGFRGSD [K5T] and YQNHVITQLKIENNPFAKGFRGSD [K5V] are the same in protein stability index: 2.44 for the first, 2.44 for the second.

Compared with YQNHWITQLKIENNPFAKGFRGSD [K5W], YQNHYITQLKIENNPFAKGFRGSD [K5Y] is lower in protein stability index: 2.64 for the first, 1.95 for the second.

Compared with YQNHKATQLKIENNPFAKGFRGSD [I6A], YQNHKCTQLKIENNPFAKGFRGSD [I6C] is lower in protein stability index: 3.47 for the first, 2.36 for the second.

Compared with YQNHKDTQLKIENNPFAKGFRGSD [I6D], YQNHKETQLKIENNPFAKGFRGSD [I6E] is lower in protein stability index: 3.53 for the first, 3.16 for the second.

Going from YQNHKFTQLKIENNPFAKGFRGSD [I6F] to YQNHKGTQLKIENNPFAKGFRGSD [I6G], the protein stability index falls from 2.45 to 2.3.

Going from YQNHKHTQLKIENNPFAKGFRGSD [I6H] to YQNHKKTQLKIENNPFAKGFRGSD [I6K], the protein stability index rises from 2.83 to 3.27.

First: YQNHKLTQLKIENNPFAKGFRGSD [I6L]
Second: YQNHKMTQLKIENNPFAKGFRGSD [I6M]
The protein stability index of the first is lower: 2.45 for the first, 2.7 for the second.

First: YQNHKNTQLKIENNPFAKGFRGSD [I6N]
Second: YQNHKPTQLKIENNPFAKGFRGSD [I6P]
The protein stability index of the first is higher: 3.09 for the first, 2.8 for the second.

Compared with YQNHKQTQLKIENNPFAKGFRGSD [I6Q], YQNHKRTQLKIENNPFAKGFRGSD [I6R] is lower in protein stability index: 2.98 for the first, 2.79 for the second.
